In the supplement of paper PMC9112550, “Optimization of the antimicrobial peptide Bac7 by deep mutational scanning” (BMC Biology, 2022):

Test system: Escherichia coli TOP10
Experiment: shrunken log2 fold change of peptide-encoding DNA abundance (4.5 h post-induction vs induction); higher = less antimicrobial activity (less host growth inhibition)
Conditions: time post-induction: 4.5 h; library: site-saturation at positions 5, 18, 19, 20
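Further: peptides expressed intracellularly from a pBAD plasmid library in pooled LB shake-flask culture, induced with 0.3% L-arabinose, DNA abundance read by NGS, three biological replicates, DESeq2 with apeglm shrinkage.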

Row | Sequence | shrunken log2 fold change
1 | RRIRYRPPRLPRPRPRPQTYPRP | -0.755
2 | RRIRQRPPRLPRPRPRPLKGPRP | -0.272
3 | RRIRCRPPRLPRPRPRPAKPPRP | -0.144
4 | RRIRDRPPRLPRPRPRPRMTPRP | 0.212
5 | RRIRTRPPRLPRPRPRPPYPPRP | 0.0259
6 | RRIRSRPPRLPRPRPRPLNLPRP | -0.539
7 | RRIRQRPPRLPRPRPRPGCPPRP | 0.414
8 | RRIRPRPPRLPRPRPRPNSVPRP | -0.174
9 | RRIRARPPRLPRPRPRPLDAPRP | 0.746
10 | RRIRDRPPRLPRPRPRPTKTPRP | -0.014
11 | RRIRHRPPRLPRPRPRPMMMPRP | -0.0507
12 | RRIRFRPPRLPRPRPRPNCYPRP | -0.435
13 | RRIRCRPPRLPRPRPRPISNPRP | -0.145
14 | RRIRLRPPRLPRPRPRPIECPRP | 0.0614
15 | RRIRGRPPRLPRPRPRPSFTPRP | 0.079
16 | RRIRFRPPRLPRPRPRPYQNPRP | -0.0547
17 | RRIRQRPPRLPRPRPRPWAPPRP | 0.0985
18 | RRIRYRPPRLPRPRPRPYTTPRP | -0.554
19 | RRIRRRPPRLPRPRPRPDARPRP | 0.553
20 | RRIRNRPPRLPRPRPRPVMPPRP | 0.267
21 | RRIRDRPPRLPRPRPRPTMFPRP | 0.0915
22 | RRIRMRPPRLPRPRPRPTWDPRP | 0.762
23 | RRIRHRPPRLPRPRPRPDPQPRP | 0.108
24 | RRIRFRPPRLPRPRPRPYDQPRP | -0.0152
25 | RRIRGRPPRLPRPRPRPQNRPRP | 0.0342

Row | Sequence | shrunken log2 fold change
26 | RRIRFRPPRLPRPRPRPILWPRP | -0.0429
27 | RRIRSRPPRLPRPRPRPFPCPRP | -0.124
28 | RRIRYRPPRLPRPRPRPYDNPRP | -0.0463
29 | RRIRNRPPRLPRPRPRPDENPRP | 0.00254
30 | RRIRHRPPRLPRPRPRPQLPPRP | 0.181
31 | RRIRDRPPRLPRPRPRPAPKPRP | 0.0948
32 | RRIRCRPPRLPRPRPRPAHHPRP | -0.222
33 | RRIRFRPPRLPRPRPRPMSEPRP | -0.381
34 | RRIRNRPPRLPRPRPRPVFRPRP | -0.165
35 | RRIRFRPPRLPRPRPRPWCGPRP | -0.142
36 | RRIRTRPPRLPRPRPRPKFEPRP | 0.0721
37 | RRIRMRPPRLPRPRPRPSNWPRP | 0.225
38 | RRIRWRPPRLPRPRPRPSKWPRP | -0.327
39 | RRIRTRPPRLPRPRPRPMSMPRP | -0.171
40 | RRIRTRPPRLPRPRPRPVQDPRP | -0.00469
41 | RRIRMRPPRLPRPRPRPSMDPRP | 0.0865
42 | RRIRIRPPRLPRPRPRPMDLPRP | -1.16
43 | RRIRWRPPRLPRPRPRPHYHPRP | -0.506
44 | RRIRDRPPRLPRPRPRPHPCPRP | 0.0731
45 | RRIRYRPPRLPRPRPRPLPVPRP | -0.142
46 | RRIRYRPPRLPRPRPRPTSHPRP | -0.611
47 | RRIRNRPPRLPRPRPRPKNGPRP | 0.96
48 | RRIRHRPPRLPRPRPRPHTAPRP | -0.337
49 | RRIRGRPPRLPRPRPRPPTLPRP | 0.596
50 | RRIRIRPPRLPRPRPRPIIQPRP | -0.455

Row | Sequence | shrunken log2 fold change
51 | RRIRFRPPRLPRPRPRPCDYPRP | -0.112
52 | RRIRKRPPRLPRPRPRPPFNPRP | 0.0386
53 | RRIRHRPPRLPRPRPRPKCMPRP | -0.29
54 | RRIRARPPRLPRPRPRPKHTPRP | 0.264
55 | RRIRIRPPRLPRPRPRPGRIPRP | 0.0431
56 | RRIRKRPPRLPRPRPRPMTYPRP | -0.212
57 | RRIRDRPPRLPRPRPRPQTKPRP | -0.115
58 | RRIRARPPRLPRPRPRPSEMPRP | 0.29
59 | RRIRPRPPRLPRPRPRPKKDPRP | -0.151
60 | RRIRHRPPRLPRPRPRPVTQPRP | -0.296
61 | RRIRRRPPRLPRPRPRPVTRPRP | 0.169
62 | RRIRPRPPRLPRPRPRPCYNPRP | -0.868
63 | RRIRPRPPRLPRPRPRPDVFPRP | -0.203
64 | RRIRHRPPRLPRPRPRPQMIPRP | -0.139
65 | RRIRARPPRLPRPRPRPKDIPRP | -0.00725
66 | RRIRRRPPRLPRPRPRPQWMPRP | 0.139
67 | RRIRIRPPRLPRPRPRPHQQPRP | -0.132
68 | RRIRWRPPRLPRPRPRPGFSPRP | 0.138
69 | RRIRARPPRLPRPRPRPNSTPRP | 0.0264
70 | RRIRWRPPRLPRPRPRPQGEPRP | 0.29
71 | RRIRPRPPRLPRPRPRPEWWPRP | 0.0468
72 | RRIRNRPPRLPRPRPRPNCCPRP | -0.124
73 | RRIRPRPPRLPRPRPRPDWEPRP | 0.19
74 | RRIRDRPPRLPRPRPRPGWQPRP | 0.22
75 | RRIRVRPPRLPRPRPRPKCNPRP | -0.181
